# Values of other authors, collected in patent US9056141B2, “Thiol-ene click chemistry for drug conjugates” (priority 2012, dated 2015).
# Details: patients receiving Adcetris treatment
substance,measurement,setting,value
brentuximab vedotin [Adcetris],patients in clinical trials experiencing serious adverse events,,31%
same,patients discontinuing the treatment due to adverse events,clinical trials,21%
